Assay results published in the nanobody polyreactivity screen of Harvey et al. (2022).

assay: yeast display, Sf9 membrane polyspecificity reagent, FACS + sequencing; frameworks hold sequencing errors
Procedure, shortened: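 Galactose induction of a Saccharomyces cerevisiae BJ5465 synthetic nanobody display library ran 36–48 hours. The cells were then stained for 1 hour at 4 °C with 10% biotinylated, detergent-solubilized Sf9 membrane reagent, pulled down on streptavidin microbeads and FACS-sorted into low and high (top ~1%) gates on expression and reagent-binding fluorescence. Labels for polyreactivity follow the gate of origin.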

Row | Sequence | polyreactivity (PSR sort gate)
1 | QDQLVDSGGGFVQAGGSLSLSCAASRRTFLYYAMGWYRQAPGKERELVAAIRRGSSTYYADSVKGRFTISRDNAKNNGFLQLISLIAADTAVYYCAAEFVNGPPYGAYDYWGQGTQVTVSS | high polyreactivity
2 | QDQLVDSGGGIVQAGGILSYSCDPSGSNVRYNAMGWYRQAPGKERELVAGIRGSGGITYYADSVKGRFTISRDNAKNTVYLQMNSLKPEDSAVYYCAADVVVCSYQEDHSWGQGTQVTESS | low polyreactivity
3 | QDQLVDSGGGLLQAGGSLRLSCAASGSMLSTYAMGWYRQATGKERELVASISSIAGSTYYADSVKGRFTISRDNAMNTVYLQLNILKPEDNAVYYCNKVYGGGSYDYWGQGTQVTVSS | low polyreactivity
4 | QDQLVDSGGGLVQAGASLRISSATSGRILWEYAMGSYRQAPGKERQLVAAITISDGSTYYADSVKGRFTISRDNAKNTVYLQMNSLNPEDTEVYYCAADSYDYTPAYLFSYKYYYWGQGTQVTVSS | low polyreactivity
5 | QDQLVDSGGGLVQAGGRLRLSCAASGLTLGSYAMGWSRQAPGQVRELVAAITRGGRSNYADSVKGRFSISRDNAKNTVYLQMYSLKPEDTAVYYCYADGPGYAAKYYWIYDYWGQGTQVTVSS | low polyreactivity
6 | QDQLVDSGGGLVQAGGSLRLSCAASGFTLAYNTMGWYRQAPGKERELVASITSSGSSTYYADSEKGRFTITRDNGKYNVYLEMNSLKPEDTAVYYFNKVRPRKFWDYYYWGQGTQVTVSS | high polyreactivity
7 | QDQLVDSGGGLVQAGGSLRLSCAASGSTFDANAMGWYRQAPGKERELVATISDGGSTNYADSVKGRFTISRDNAKNTVYLQMNSLKPEDTAVYYCAAVKLFLGLGYVYWGQGTQVTVSS | low polyreactivity
8 | QDQLVDSGGGLVQAGGSLSLSCAASGRNFGLNAKGWYRQAPGKEREFVAAIDWNDASTFYADSVKGRFTISRDNAENTVYLQMNSLKPVETAVYYCAAPWWVTTGTKFDYWGQGTQVTVSS | high polyreactivity
9 | QDQLVDSGGGLVQAGGSLSLSCAASGSILRTYAMGWYRQAPGKERELVAAISYRGVSTYYADSVKGRFTISRDNAKNTVYLQMNSLKPEDTAVYYCAADQLSDEYDYWGQGTQVTVSS | high polyreactivity
10 | QDQLVDTVGGLVQAGGSLRLSCAASGRTFWFYAMGWYRQAPGKESELVASITTGGGTNYADSVKGRFTISRDNAKITVYLQMNSLKPEDTAVYYCAVKRYHFGSGVDWYGGSSYGYWGQGTQVTVSS | high polyreactivity
11 | QDQLVEAGGGLVQAGGSLRLSCAASRRTFWKYARGWYIQAPGKERELVAAISSSGGNTYYADSVKGRFTISRDNAKNTVYLQMNRLKPEDTAVYYCAAPLPRGAYFYWGQGTQVTVSS | high polyreactivity
12 | QDQLVESGGCLVQAGGSLRLSCASSGSTFGDYAMGWYRQAPGKERELVAAISVSGASTYYADSVKGRFTISRDNAKNTVYLQMNSLKPEDTAVYYCAASYDTIGDSWGQGTQVSVSS | low polyreactivity
13 | QDQLVESGGGIVQAGGSLRLSCAASGSTFYENAMGWYRQAPGKERELVAAITWSGGRTYYADSVKGRFTISRDNAKNTVYLQMNSLKPEDTAVYYCAALYGVSEEDDYWGQGTQVTVSS | high polyreactivity
14 | QDQLVESGGGKVQAGGSLRLRCAASGRIFQYYTMVWSRQAPGKERELVAGITRGDRTYADSVKGRFTISRDNAKNTVYLQMNSLKQEDTAVYYCNADVYPYTLALPAGMGYWGQGTQVTVSS | high polyreactivity
15 | QDQLVESGGGLDQAGGRLRLSCAASGFTFGRNAMGWYRPAPGKERELDAASSWSGGSTYYADSVKGRFTISRDYAKNTVYVQMNSLKPEDTAVYYCNKRSRLGRGNRDYWGQGTQVTVSS | high polyreactivity
16 | QDQLVESGGGLDQAGRSLRLSCAASGFTYRPYAMGWYRQEPGKERELVAAISSIGSTYYADSVKGRFTISRDNAKYTVYLPMNSLNPEDTAVYYCIADSYVRSTIFDHWGQGTQVTVSS | low polyreactivity
17 | QDQLVESGGGLFQAGGSLRLSCAASGRTFYTYAMGRYRPAPRKERELVAAITSGDGTYYADSVKGRFTISRDNAKNTVYLQMNSLKPEDTAVYYCADTRTYQLYRWAPRYYYWGQGTQVTVSS | high polyreactivity
